Data published in patent US20230287125A1 (LEPU BIOPHARMA, published 2023).
Numbering of substitutions follows the chain as printed. Names may count otherwise.

B1: Hu67F3G7-2 (antibody, V domains shown)
VH: EVQLVQSGAEVKKPGASVKVSCKASGYTFTDFWVSWVRQAPGQGLEWMGEIYPNSGVSRYNEKFKGRVTMTVDKSISTAYMELSRLRSDDTAVYYCTKYFGYTYWFGYWGQGTLVTVSS
VL: DIQMTQSPSSLSASVGDRVTITCRASKSVSTYMHWYQQKPGKAPKLLIYSASHLESGVPSRFSGSGSGTDFTLTISSLQPEDFATYYCQQSNELPVTFGGGTKVEIK
notes: humanized
B2: Hu67F3G7-3 (antibody, V domains shown)
VH: B1 VH with T28I, M48I
VL: B1 VL
notes: humanized
B3: Hu89C10H8-7 (antibody, V domains shown)
VH: EVQLVESGGGLVKPGGSLRLSCAASGFTFSNYWMTWIRQAPGKGLEWVASITNTGSSTFYPDSVKGRFTISRDNAKNSLYLQMNSLRAEDTAVYYCTRDTTIAPFDYWGQGTMVTVSS
VL: DIQMTQSPSSLSASVGDRVTITCKASQNLNEYLNWYQQKPGKAPKRLIYKTNTLQAGIPSRFSGSGSGTDYTLTISSLQPEDFATYYCSQYNSGNTFGQGTKLEIK
notes: humanized
B4: Hu89C10H8-4 (antibody, V domains shown)
VH: B3 VH with N77S
VL: B3 VL with I58V
notes: humanized
B5: Hu89C10H8-11 (antibody, V domains shown)
VH: B3 VH
VL: B3 VL with T69I
notes: humanized
B6: Hu47C6A3-2 (antibody, V domains shown)
VH: QVQLQESGPGLVKPSETLSLTCTVSGYSITSDYAWNWIRQPPGKGLEWIGYIIYSGSTSYNPSLKSRVTISRDTSKNQFSLKLSSVTAADTAVYYCARSTMIATNWFAYWGQGTLVTVSS
VL: DIQMTQSPSSLSASVGDRVTITCKASQDVSLAVAWYQQKPGKAPKLLIYWASTRHTGVPSRFSGSGSGTDFTLTISSLQPEDFATYYCQQHYITPWTFGGGTKVEIK
notes: humanized
B7: Hu47C6A3-1 (antibody, V domains shown)
VH: B6 VH with R72V
VL: B6 VL
notes: humanized
B8: 47C6A3, Human IgG1 (N297A)-Fc (antibody, V domains shown)
VH: DVQLQESGPGLVKPSQSLSLTCTVTGYSITSDYAWNWIRQFPGNKLEWMGYIIYSGSTSYNPSLKSRISITRDTSKNQFFLQLNSVTTEDTATYYCARSTMIATNWFAYWGQGTLVTVSA
VL: DIVMTQSHKFMSTSVVDRVSITCKASQDVSLAVAWYQQKPGQSPKLLIYWASTRHTGVPDRFTGSGSGTDFALTISSVQAEDLALYYCQQHYITPWTFGGGTKLEIK
B9: Hu67F3G7-22, Human IgG1 (N297A)-Fc (antibody, V domains shown)
VH: B1 VH
VL: B1 VL with A43Q
B10: Hu89C10H8-7, Human IgG1 (N297A)-Fc (antibody, V domains shown)
VH: B3 VH
VL: B3 VL

These molecules were tested against T1, human PD-L1-his tag protein (human, UniProt Q9NZQ7 19-238) (assay: SPR (Biacore T200), mAb captured on Protein A chip, PD-L1-his injected).
T1 construct: also called human PD-L1-His protein; recombinant PD-L1 protein; not shown: his tag
T1 sequence (Q9NZQ7 19-238 limits assumed): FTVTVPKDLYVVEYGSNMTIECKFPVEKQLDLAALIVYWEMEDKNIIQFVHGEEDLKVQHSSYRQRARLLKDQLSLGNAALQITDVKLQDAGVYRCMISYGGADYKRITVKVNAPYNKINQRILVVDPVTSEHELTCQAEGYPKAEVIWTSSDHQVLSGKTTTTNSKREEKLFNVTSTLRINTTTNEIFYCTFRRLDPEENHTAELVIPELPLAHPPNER
Protocol: The binding of the humanized antibodies to recombinant PD-L1 protein (human PD-L1-his tag) was tested by Biacore using a capture method. […] A serial dilution of human PD-L1-his tag protein was injected over captured antibody for 2 mins at a flow rate of 30 μl/min. The antigen was allowed to dissociate for 1500 s. All the experiment were carried out on a Biacore T200.

Molecule	Kd	koff	kon
B1	36.7 pM	7.03e-05 s⁻¹	1.92e+06 M⁻¹ s⁻¹
B2	37.1 pM	7.74e-05 s⁻¹	2.09e+06 M⁻¹ s⁻¹
B3	93.5 pM	5.31e-05 s⁻¹	568000 M⁻¹ s⁻¹
B4	96.2 pM	5.41e-05 s⁻¹	562000 M⁻¹ s⁻¹
B5	98.3 pM	5.54e-05 s⁻¹	564000 M⁻¹ s⁻¹
B6	367 pM	0.0009 s⁻¹	2.45e+06 M⁻¹ s⁻¹
B7	480 pM	0.000593 s⁻¹	1.24e+06 M⁻¹ s⁻¹

What follows are molecules tested against T2, human PD-L1-Fc protein (human, UniProt Q9NZQ7 19-238) (assay: receptor blocking ELISA: coated human PD-L1-Fc, blocked ligand biotin-labeled human PD-1-Fc (Bio-PD1), OD 450nm; upper left panel).
T2 construct: coating antigen of the ELISAs; also called rhPD-L1-Fc; not shown: Fc
T2 sequence (Q9NZQ7 19-238 limits assumed): as above
Protocol: (§1) Briefly, microtiter plates were coated with human PD-L1-Fc protein at 0.5 μg/ml in PBS, 100 μl/well at 4° C. overnight, then blocked with 150 μl/well of 1% BSA at 37° C. for 2 hours. […] The plates were washed with PBS/Tween and then incubated with Streptavidin-HRP for 10 mins at 37° C. After washing, the plates were developed with TMB substrate and analyzed by spectrophotometer at OD 450 nm.

Molecule	IC50
B1	0.109 µg/mL
B4	0.111 µg/mL
B7	0.0349 µg/mL

Each molecule was assayed against T1, human PD-L1-his tag protein (assay: SPR (Biacore), affinity ranking, PDL1-His).

Molecule	Kd	koff	kon
B1	37.9 pM	9.75e-05 s⁻¹	2.57e+06 M⁻¹ s⁻¹
B2	34.7 pM	9.72e-05 s⁻¹	2.8e+06 M⁻¹ s⁻¹
B3	108 pM	6.61e-05 s⁻¹	615000 M⁻¹ s⁻¹
B4	95.4 pM	5.94e-05 s⁻¹	623000 M⁻¹ s⁻¹
B5	96.2 pM	6.73e-05 s⁻¹	700000 M⁻¹ s⁻¹

These molecules were tested against T2, human PD-L1-Fc protein (assay: receptor blocking ELISA: coated human PD-L1-Fc, blocked ligand biotin-labeled human PD-1-Fc (Bio-PD1), OD 450nm; upper right panel).
Protocol: as §1

Molecule	IC50
B2	0.158 µg/mL
B3	0.114 µg/mL
B6	0.0354 µg/mL

These molecules were tested against PD-L1 on PD-L1 target cells (Homo sapiens (Human), UniProt Q9NZQ7 19-290) (assay: cell-based or functional assay).
Sequence of PD-L1 on PD-L1 target cells (Q9NZQ7 19-290 limits assumed): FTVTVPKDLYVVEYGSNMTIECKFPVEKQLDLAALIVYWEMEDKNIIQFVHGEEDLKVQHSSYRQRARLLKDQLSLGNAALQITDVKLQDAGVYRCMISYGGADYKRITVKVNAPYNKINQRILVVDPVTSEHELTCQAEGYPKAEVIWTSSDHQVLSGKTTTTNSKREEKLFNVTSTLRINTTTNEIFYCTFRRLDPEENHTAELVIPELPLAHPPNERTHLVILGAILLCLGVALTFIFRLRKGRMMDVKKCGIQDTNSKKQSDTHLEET

Molecule	EC50, NFAT-RE-mediated luminescence, PD1 effector cells co-cultured with PD-L1 target cells
B8	150 pM
B9	103 pM
B10	214 pM

These molecules were tested against T3, human PD-L1 over-expressed on CHOK1 cells (human, UniProt Q9NZQ7 19-290) (assay: flow cytometry (MFI) on PDL1-CHOK1 cells; lower right panel).
T3 construct: whole, on cells; also called PDL1-CHOK1 cells
T3 sequence (Q9NZQ7 19-290): as the sequence (Q9NZQ7 19-290 limits assumed) above
Protocol: (§2) To evaluate the antigen binding property, the humanized antibodies were analyzed for their binding to PD-L1 overexpressed on mammalian cells by FACS. Briefly, PDL1-CHOK1 cells were firstly incubated with 3-fold serious diluted humanized antibodies starting at 15 μg/ml at 4° C. for 40 mins. After washed by PBS, the Alexa Fluor® 647 AffiniPure Goat Anti-Human IgG (H+L) antibody was added to each well and incubated at 4° C. for 30 mins. The MFI of Alexa Fluor® 647 was evaluated by FACSCanto.

Molecule	EC50
B3	100 pM
B4	127 pM
B5	151 pM

Each molecule was assayed against PD-L1 on PD-L1 target cells (Homo sapiens (Human)) (UniProt Q9NZQ7) (assay: cell-based or functional assay).
Sequence of PD-L1 on PD-L1 target cells (Homo sapiens (Human)) (Q9NZQ7 19-290 limits assumed): as above

Molecule	EC50, NFAT-RE-mediated luminescence, PD1 effector cells co-cultured with PD-L1 target cells
MPDL3280A (Atezolizumab), Human IgG1 (N297A)-Fc (antibody)	133 pM

The molecules below were run against T2, human PD-L1-Fc protein (assay: receptor blocking ELISA: coated human PD-L1-Fc, blocked ligand biotin-labeled human CD80-Fc (Bio-CD80), OD 450nm; lower left panel).
Protocol: as §1

Molecule	IC50
B5	0.275 µg/mL

The molecules below were run against T2, human PD-L1-Fc protein (assay: ELISA, antibody titrated on coated human PD-L1-Fc, OD 450nm; upper left panel).
Protocol: (§3) To evaluate antigen binding activity, the humanized antibodies were subjected to ELISA test. Briefly, microtiter plates were coated with human PD-L1-Fc protein at 0.5 μg/ml in PBS, 100 μl/well at 4° C. overnight, then blocked with 200 μl/well of 1% BSA. Three-fold dilutions of humanized antibodies starting from 10 μg/ml were added to each well and incubated for 1 hour at 37° C. The plates were washed with PBS/Tween and then incubated with mouse-anti-human IgG Fab antibody conjugated with Horse Radish Peroxidase (HRP) for 1 hour at 37° C. After washing, the plates were developed with TMB substrate and analyzed by spectrophotometer at OD 450 nm.

Molecule	EC50
B1	0.0132 µg/mL
B2	0.0232 µg/mL
B4	0.00683 µg/mL
B7	0.00963 µg/mL

The molecules below were run against T3, human PD-L1 over-expressed on CHOK1 … (assay: flow cytometry (MFI) on PDL1-CHOK1 cells; upper left panel).
Protocol: as §2

Molecule	EC50
B6	175 pM
B7	291 pM

The molecules below were run against T2, human PD-L1-Fc protein (assay: ELISA, antibody titrated on coated human PD-L1-Fc, OD 450nm; upper right panel).
Protocol: as §3

Molecule	EC50
B3	0.00705 µg/mL
B5	0.00878 µg/mL
B6	0.0117 µg/mL

Each molecule was assayed against T2, human PD-L1-Fc protein (assay: receptor blocking ELISA: coated human PD-L1-Fc, blocked ligand biotin-labeled human PD-1-Fc (Bio-PD1), OD 450nm; lower left panel).
Protocol: as §1

Molecule	IC50
B5	0.11 µg/mL

Each molecule was assayed against T2, human PD-L1-Fc protein (assay: receptor blocking ELISA: coated human PD-L1-Fc, blocked ligand biotin-labeled human CD80-Fc (Bio-CD80), OD 450nm; upper left panel).
Protocol: as §1

Molecule	IC50
B1	0.282 µg/mL
B4	0.353 µg/mL
B7	0.141 µg/mL

What follows are molecules tested against T3, human PD-L1 over-expressed on CHOK1 … (assay: flow cytometry (MFI) on PDL1-CHOK1 cells; upper right panel).
Protocol: as §2

Molecule	EC50
B1	108 pM
B2	167 pM

What follows are molecules tested against T2, human PD-L1-Fc protein (assay: receptor blocking ELISA: coated human PD-L1-Fc, blocked ligand biotin-labeled human CD80-Fc (Bio-CD80), OD 450nm; upper right panel).
Protocol: as §1

Molecule	IC50
B2	0.495 µg/mL
B3	0.285 µg/mL
B6	0.165 µg/mL
